The values that follow come from publication doi:10.1101/2020.05.01.070730 (bioRxiv, 2020).

Residue numbers refer to the chain shown, from its start.

First the molecules themselves.
B1: GT-pDNA (GT 8 nt from 3'-OH) (dsDNA)
DNA 1: ATGTGAATCAGTATGGTTGCTATCTGC
DNA 2: ATTTCCTTCAGCAGATAGTAACCATACTGATTCACAT
B2: GT-dsDNA (GT 18 nt from 3' end) (dsDNA)
DNA 1: ATGTGAATCAGTATGGTTGCTATCTGCTGAAGGAAAT
DNA 2: B1 DNA 2
B3: dsDNA (dsDNA)
DNA 1: B2 DNA 1 with G19A
DNA 2: B1 DNA 2
B4: pDNA (AT) (dsDNA)
DNA 1: ATGTGAATCAGTATGGTTACTATCTGC
DNA 2: B1 DNA 2

The target of the first data set is T1, MutS N279A (Pseudomonas aeruginosa, UniProt Q9HY08 1-855, N279A).
T1 sequence: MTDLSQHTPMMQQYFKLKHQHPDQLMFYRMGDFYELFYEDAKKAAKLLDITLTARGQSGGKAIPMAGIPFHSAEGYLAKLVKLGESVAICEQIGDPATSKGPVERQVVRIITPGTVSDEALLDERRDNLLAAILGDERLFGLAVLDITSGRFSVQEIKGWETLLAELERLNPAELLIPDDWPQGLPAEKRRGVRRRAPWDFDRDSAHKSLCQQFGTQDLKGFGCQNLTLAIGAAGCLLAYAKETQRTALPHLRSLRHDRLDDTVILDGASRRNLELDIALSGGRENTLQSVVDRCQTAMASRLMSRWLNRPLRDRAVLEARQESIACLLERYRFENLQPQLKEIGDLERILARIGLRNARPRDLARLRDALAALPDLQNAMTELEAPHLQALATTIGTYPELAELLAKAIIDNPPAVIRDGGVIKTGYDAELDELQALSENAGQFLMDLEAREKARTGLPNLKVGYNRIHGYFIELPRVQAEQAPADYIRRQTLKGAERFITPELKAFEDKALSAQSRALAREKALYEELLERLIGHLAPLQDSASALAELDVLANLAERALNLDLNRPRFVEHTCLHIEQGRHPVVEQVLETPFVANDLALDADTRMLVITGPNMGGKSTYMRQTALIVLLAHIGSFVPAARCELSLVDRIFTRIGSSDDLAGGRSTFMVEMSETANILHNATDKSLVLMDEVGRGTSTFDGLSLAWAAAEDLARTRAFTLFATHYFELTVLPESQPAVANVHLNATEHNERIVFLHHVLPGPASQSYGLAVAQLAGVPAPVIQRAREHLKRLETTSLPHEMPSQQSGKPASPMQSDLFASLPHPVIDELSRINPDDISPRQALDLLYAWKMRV
Kind of data set: EMSA. (Mobility shift assays separate free from complexed probe on a gel.)
Broadly, the Kd is the constant that tells how readily two partners part at equilibrium. The molecule B1 had a Kd of 63.2 ± 2.4 nM.

B2 gave a Kd of 41.3 ± 5.2 nM.

As to B3, binding was put at a Kd of 358 ± 36.9 nM.

Turning to B4, the dissociation constant Kd came out at 430 ± 18 nM.

A further data set has as its target T2, MutS (Pseudomonas aeruginosa, UniProt Q9HY08 1-855).
T2 sequence: T1 sequence with A279N
Kind of data set: EMSA.
The molecule B1 yielded a dissociation constant Kd of 20 ± 0.1 nM.

Regarding B2, the Kd turned out to be 35 ± 0.9 nM.

For the molecule B3, the dissociation constant (Kd) was 331 ± 15.9 nM.

The molecule B4 came in with a Kd of 50.7 ± 2.3 nM.

A further data set deals with T3, MutS R842E (Pseudomonas aeruginosa, UniProt Q9HY08 1-855, R842E).
T3 sequence: T1 sequence with A279N, R842E
Kind of data set: native PAGE shift.
Regarding B2, the binding result is recorded as “binds”.

Take B3: the binding result was “binds”.

Regarding B4, the binding result is “binds”.
